Data on three molecules can be found in US20250189530A1 (STCUBE, published 2025).

Where a chain is given by its changes, count along the chain named. Where two headings read alike, the source gives them in different places.

Assay [1] has as its target T1, hBTN1A1 ICD (human, UniProt Q13410 270-526).
T1 sequence: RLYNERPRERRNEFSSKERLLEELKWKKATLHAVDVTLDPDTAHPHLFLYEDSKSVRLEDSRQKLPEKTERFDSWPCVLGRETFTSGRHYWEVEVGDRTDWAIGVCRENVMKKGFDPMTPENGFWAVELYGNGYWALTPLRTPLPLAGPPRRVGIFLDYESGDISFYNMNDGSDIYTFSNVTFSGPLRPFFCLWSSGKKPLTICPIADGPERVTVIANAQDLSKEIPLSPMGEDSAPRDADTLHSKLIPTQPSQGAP
The experiment in a line: ELISA clone screen, STCube, negative control. In general terms: An ELISA detects its analyte on a solid surface through an enzyme-linked reagent.

In assay [2] the target is T2, BTN1A1 Peptide 4 (human).
T2 construct: also called BTN1A1-pep4- WT; Pep4
T2 peptide: EVEVGDRTDWAIGVC
The assay can be described thus: ELISA clone screen, STCube, negative control.

Assay [3] concerns the target T3, denatured hBTN1A1 ICD (human, UniProt Q13410 270-526).
T3 construct: Same protein as hBTN1A1 ICD, denatured before the ELISA; also called hBTN1A1 ICD denatured; Denatured ICD
T3 sequence: T1 sequence
The assay can be described thus: ELISA clone screen, STCube, negative control.

In assay [4] the target is T1, hBTN1A1 ICD. The experiment in a line: ELISA clone screen, GenScript, negative control.
For assay [5], the target named is T2, BTN1A1 Peptide 4. The assay can be described thus: ELISA clone screen, GenScript, negative control.
In assay [6] the target is T3, denatured hBTN1A1 ICD. The assay can be described thus: ELISA clone screen, GenScript, negative control.
For assay [7], the target named is T4, ECD1 Peptide.
T4 construct: also called BTN1A1 ECD1
T4 peptide: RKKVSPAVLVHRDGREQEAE
The assay can be described thus: ELISA clone screen.

Assay [8] addresses T5, hBTN1A1-His (human, UniProt Q13410).
T5 construct: also called human BTN1A1-His
T5 sequence (antigen, looked up): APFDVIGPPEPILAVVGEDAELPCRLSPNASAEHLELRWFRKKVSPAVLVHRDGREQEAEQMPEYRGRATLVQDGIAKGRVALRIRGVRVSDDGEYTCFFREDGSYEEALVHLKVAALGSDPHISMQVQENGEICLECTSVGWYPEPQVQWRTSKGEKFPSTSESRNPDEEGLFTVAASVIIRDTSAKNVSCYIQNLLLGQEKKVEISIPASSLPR
The assay can be described thus: ELISA clone screen.

For assay [9], the target named is KLH Only (keyhole limpet). The assay can be described thus: ELISA clone screen.
KLH Only (keyhole limpet), sequence (Q10583 17-3414): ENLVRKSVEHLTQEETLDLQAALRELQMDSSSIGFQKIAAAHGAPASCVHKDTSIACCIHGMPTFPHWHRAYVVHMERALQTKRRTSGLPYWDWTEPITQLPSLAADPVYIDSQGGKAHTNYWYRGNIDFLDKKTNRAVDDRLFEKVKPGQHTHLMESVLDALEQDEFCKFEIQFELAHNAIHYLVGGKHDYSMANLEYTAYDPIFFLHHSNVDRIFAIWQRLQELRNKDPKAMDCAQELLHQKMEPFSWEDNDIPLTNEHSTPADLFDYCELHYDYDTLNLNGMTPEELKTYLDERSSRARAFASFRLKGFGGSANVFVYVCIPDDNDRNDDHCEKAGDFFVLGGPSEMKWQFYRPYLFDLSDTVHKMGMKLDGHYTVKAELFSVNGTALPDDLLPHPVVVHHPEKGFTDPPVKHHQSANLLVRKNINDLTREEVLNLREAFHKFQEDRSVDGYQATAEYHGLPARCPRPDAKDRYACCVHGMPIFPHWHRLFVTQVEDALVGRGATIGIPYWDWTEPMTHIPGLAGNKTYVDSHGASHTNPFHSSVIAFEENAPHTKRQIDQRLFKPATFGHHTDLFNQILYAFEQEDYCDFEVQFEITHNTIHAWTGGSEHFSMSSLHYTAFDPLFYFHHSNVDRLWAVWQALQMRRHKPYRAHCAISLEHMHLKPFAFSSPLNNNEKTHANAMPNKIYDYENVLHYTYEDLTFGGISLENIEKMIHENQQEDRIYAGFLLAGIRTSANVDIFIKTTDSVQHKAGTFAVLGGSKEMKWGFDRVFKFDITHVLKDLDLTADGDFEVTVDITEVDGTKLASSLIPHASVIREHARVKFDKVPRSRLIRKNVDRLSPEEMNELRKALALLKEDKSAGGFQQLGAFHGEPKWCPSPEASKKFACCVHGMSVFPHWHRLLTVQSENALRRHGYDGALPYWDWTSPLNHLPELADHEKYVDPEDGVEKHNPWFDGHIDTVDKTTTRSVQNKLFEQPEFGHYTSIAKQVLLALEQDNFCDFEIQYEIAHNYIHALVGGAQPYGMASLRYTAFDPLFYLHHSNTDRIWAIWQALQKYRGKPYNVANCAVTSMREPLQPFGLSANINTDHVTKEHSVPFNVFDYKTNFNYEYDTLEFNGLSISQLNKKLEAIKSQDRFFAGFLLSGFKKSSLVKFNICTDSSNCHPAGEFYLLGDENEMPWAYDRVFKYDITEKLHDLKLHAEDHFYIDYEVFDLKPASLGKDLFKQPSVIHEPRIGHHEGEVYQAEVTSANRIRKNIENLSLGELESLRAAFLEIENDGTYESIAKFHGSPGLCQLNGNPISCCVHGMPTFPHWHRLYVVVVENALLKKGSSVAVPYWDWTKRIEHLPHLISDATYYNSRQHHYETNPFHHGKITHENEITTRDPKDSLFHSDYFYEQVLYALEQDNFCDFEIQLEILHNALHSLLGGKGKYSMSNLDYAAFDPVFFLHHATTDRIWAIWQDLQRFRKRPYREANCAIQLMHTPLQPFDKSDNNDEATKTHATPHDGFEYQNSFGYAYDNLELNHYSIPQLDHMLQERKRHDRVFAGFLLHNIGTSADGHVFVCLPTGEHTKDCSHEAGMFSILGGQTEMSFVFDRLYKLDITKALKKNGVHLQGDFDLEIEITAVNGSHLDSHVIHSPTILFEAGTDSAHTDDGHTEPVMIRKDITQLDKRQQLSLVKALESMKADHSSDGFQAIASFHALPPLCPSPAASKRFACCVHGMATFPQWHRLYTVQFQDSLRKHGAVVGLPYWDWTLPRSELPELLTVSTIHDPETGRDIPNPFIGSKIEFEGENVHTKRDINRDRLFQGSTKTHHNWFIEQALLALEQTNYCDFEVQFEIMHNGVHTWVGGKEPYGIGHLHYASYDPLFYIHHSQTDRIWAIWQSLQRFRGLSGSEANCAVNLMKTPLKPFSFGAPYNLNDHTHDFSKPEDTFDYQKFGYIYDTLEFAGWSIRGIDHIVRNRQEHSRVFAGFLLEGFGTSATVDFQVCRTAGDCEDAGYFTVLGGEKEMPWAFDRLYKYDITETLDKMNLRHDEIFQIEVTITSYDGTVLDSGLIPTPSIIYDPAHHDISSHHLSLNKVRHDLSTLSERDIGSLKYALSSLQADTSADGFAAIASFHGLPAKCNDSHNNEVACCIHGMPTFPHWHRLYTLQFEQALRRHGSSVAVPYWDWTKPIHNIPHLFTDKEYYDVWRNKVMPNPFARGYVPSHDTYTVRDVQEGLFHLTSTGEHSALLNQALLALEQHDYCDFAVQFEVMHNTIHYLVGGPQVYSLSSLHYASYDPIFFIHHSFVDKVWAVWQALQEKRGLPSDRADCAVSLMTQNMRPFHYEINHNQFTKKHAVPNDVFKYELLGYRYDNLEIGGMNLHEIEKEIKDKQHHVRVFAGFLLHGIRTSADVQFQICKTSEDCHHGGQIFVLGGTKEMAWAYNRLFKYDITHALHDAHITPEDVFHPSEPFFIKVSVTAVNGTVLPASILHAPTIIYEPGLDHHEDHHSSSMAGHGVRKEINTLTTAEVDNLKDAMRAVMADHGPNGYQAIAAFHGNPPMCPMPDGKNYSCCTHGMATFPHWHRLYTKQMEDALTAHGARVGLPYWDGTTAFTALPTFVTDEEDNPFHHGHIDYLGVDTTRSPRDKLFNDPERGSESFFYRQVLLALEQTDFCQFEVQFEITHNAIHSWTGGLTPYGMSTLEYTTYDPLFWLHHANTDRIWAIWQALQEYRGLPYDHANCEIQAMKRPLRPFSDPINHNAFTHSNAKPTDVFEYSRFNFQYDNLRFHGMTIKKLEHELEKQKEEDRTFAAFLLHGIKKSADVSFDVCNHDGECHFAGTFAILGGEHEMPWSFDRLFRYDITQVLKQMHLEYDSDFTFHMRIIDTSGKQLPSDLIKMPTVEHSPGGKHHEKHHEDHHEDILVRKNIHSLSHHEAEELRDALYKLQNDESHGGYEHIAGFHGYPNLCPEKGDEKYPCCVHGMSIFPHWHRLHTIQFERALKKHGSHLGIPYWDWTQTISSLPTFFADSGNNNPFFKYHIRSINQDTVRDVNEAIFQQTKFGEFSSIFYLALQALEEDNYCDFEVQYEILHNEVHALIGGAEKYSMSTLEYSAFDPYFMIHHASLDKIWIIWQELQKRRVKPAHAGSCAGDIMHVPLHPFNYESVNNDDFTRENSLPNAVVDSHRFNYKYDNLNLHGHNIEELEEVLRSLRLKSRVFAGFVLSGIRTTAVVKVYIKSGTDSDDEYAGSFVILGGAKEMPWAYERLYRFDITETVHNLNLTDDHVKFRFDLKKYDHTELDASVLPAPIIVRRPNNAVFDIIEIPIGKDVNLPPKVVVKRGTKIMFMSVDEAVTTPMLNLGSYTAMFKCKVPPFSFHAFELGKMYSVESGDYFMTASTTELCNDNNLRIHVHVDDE
Assay [10] has as its target T5, hBTN1A1-His. The experiment in a line: ELISA, titration of purified antibody.
Assay [11] deals with T5, hBTN1A1-His. The experiment in a line: ELISA, titration of purified antibody. The source holds these as a separate data set.

Regarding “Negative (control of the clone screen ELISA)”, the ELISA signal is 0.04 in assay [1]; 0.048 in [2]; 0.041 in assay [3]; 0.063 in assay [4]; 0.074 in assay [5]; 0.062 in [6].

B1: STC85F1-1 (antibody, V domains shown)
VH: QSLEESGGRLVTPGGSLTLTCTVSGIDLSRYGVNWVRQAPGKGLEWIGYIGTTSNTYYASWAKGRFTISKTSSTTVDLKMTSLTTEDTATYFCARSVVSPSNSSFWGQGTLVTVSS
VL: DPVMTQTPSSTSAAVGGTVTINCQSSQSVYNNKNLSWFQQKPGQPPKLLIYRASTLPSGVPSRFKGSGSGTQFTLTISDLECDDAATYYCAGGYSGDINVFGGGTEVVVK
notes: From immunized New Zealand rabbits; IgG heavy chain and Kappa light chain; Variable domains without signal peptide; also called clone #85F1-1
The EC50 (read off the curve) is the concentration that produces a half-maximal response. With B1, the figures for the “O.D. 450 nm” value in assay [7], in assay [8] and in assay [9] were 3.18, 2.91 and 0.051, respectively. Besides, the “EC50 (read off the curve)” value in [10] was roughly 0.02 µg/mL.

B2: STC43G3-1 (antibody, V domains shown)
VH: QSLEESGGRLVTPGTPLTLTCTVSGIDLSRYGVNWVRQAPGKGLEWIGYIGTTGNTYYASWVNGRFTISKTSTTVELKMTSLTAADTATYFCARSVVSPSNSSFWGQGTLVTVSS
VL: B1 VL with K33N, T55K, S62P, K65S, D79S, L80V, E81Q, Y89F
notes: From immunized New Zealand rabbits; IgG heavy chain and Kappa light chain; Variable domains without signal peptide; also called clone #43G3-1
Regarding B2, the “O.D. 450 nm” value in [7] came to 2.66; in [8], 2.1; in assay [9], 0.052. Also, in [11], the “EC50 (read off the curve)” value is roughly 0.02 µg/mL.
